Positions count from the first letter of the chain named.

The values below come from patent KR20230139570A (dated 2023).

For assay [1], the target named is CD47 on CD47-overexpressing breast cancer cell line MCF-7 (UniProt Q08722). In words: flow cytometry on MCF-7 cells, secondary antibody alone (background control).
Assay [2] addresses CD47 단백질 (Acrobiosystems, cat# CD7-HA2E9) (UniProt Q08722). The experiment in a line: ELISA, CD47 protein coated, negative control. In general terms: An ELISA detects its analyte on a solid surface through an enzyme-linked reagent.
Assay [3] shares this target. The experiment in a line: ELISA, CD47 protein coated, same method as Example 2-1.
Assay [4] deals with 인간 CD47 단백질 (Human CD47, SPR analyte) (human, UniProt Q08722 19-139, limits assumed). The experiment in a line: SPR, Biacore 8K, antibody captured, human CD47 as analyte. In general terms: Surface plasmon resonance follows binding to a sensor surface in real time, without labels.
인간 CD47 단백질 (Human CD47, SPR analyte), sequence (Q08722 19-139 limits assumed): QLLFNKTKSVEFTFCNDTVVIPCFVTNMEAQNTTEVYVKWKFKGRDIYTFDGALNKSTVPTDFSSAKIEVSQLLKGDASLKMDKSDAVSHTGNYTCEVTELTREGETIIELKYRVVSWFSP

On to “PE-conjugated goat anti-mouse IgG (Biolegend Inc., cat# 405307) (antibody)”, for which, in assay [1], the Mean (fluorescence) turned out to be 80 and the Median (fluorescence) turned out to be 73.9.
“음성대조군 (negative control of the Hu3A5V10 ELISA)” registered an OD450 in assay [2] of 0.0431 OD450.

B1: Hu3A5V10 항체 (humanized 3A5 antibody, as tested in Example 4) (antibody, V domains shown)
VH: EVQLVQSGSELKKPGASVKVSCKASGYTFTSYWMHWMRQAPGQGLEWIGVIDPSDSYTSYNQGFTGRFVLSVDTSVSTAYLQISSLKAEDTAVYYCARGGKRAMDYWGQGTTVTVSS
VL: DVVMTQSPLSLPVTLGQPASISCRSSQSLVHSNGNTYLHWFQQRPGQSPRLLIYKVSNRFSGVPDRFSGSGSGTDFTLKISRVEAEDVGVYYCSQSTHVPFTFGGGTKLEIK
In assay [3], B1 registered an OD450 of 2.81 OD450.

B2: AHF16310 전장 항체 (full length antibody, IgG4) (antibody, V domains shown)
VH: B1 VH with S54N, A103M
VL: DVVMTQSPLSLPVTLGQPASISCRSSQSLVHSNGNTYLHWFQQRPGQSPRLLIYKVSNRFTGVPDRFSGSGSGTDFTLKISRVEAEDVGVYYCSQSTHVPFTFGGGTKLEIKR
notes: also called AHF16310 항체
One may read the Kd as a measure of binding affinity in units of concentration. Low readings indicate higher affinity, high ones lower affinity. For orientation: koff means the first-order rate constant of dissociation. Low readings indicate slow dissociation, high ones fast dissociation. By kon is commonly meant the rate constant with which the complex forms. Read a high kon as fast association. In assay [4], B2 displayed a Kd of 0.208 nM, an off-rate constant (koff) of 0.000458 s⁻¹ and an association rate constant (kon) of 2.21e+06 M⁻¹ s⁻¹.

B3: AHF16312 전장 항체 (full length antibody, IgG4) (antibody, V domains shown)
VH: B1 VH with S54N, A103I
VL: B2 VL with H39N
notes: also called AHF16312 항체
In assay [4], B3 yielded a dissociation constant Kd of 0.166 nM, a koff of 0.000307 s⁻¹ and an on-rate (kon) of 1.85e+06 M⁻¹ s⁻¹.

B4: Hu3A5V10 전장 항체 (full length antibody, IgG4) (antibody, V domains shown)
VH: B1 VH
VL: B2 VL with T61S
notes: also called U822EGG010-Hu3A5V10
In assay [4], B4 came in with a dissociation constant Kd of 0.465 nM, a koff of 0.000467 s⁻¹ and a kon of 1e+06 M⁻¹ s⁻¹.

B5: AHF16309 전장 항체 (full length antibody, IgG4) (antibody, V domains shown)
VH: B1 VH with S54N, A103M
VL: B2 VL with H39N, T61P
notes: also called AHF16309 항체
With B5, in assay [4], the affinity, expressed as Kd, was 0.312 nM; the koff turned out to be 0.000865 s⁻¹; the on-rate constant (kon) amounted to 2.78e+06 M⁻¹ s⁻¹.
